Four molecules from article PMC2852410, “Shared Active Site Architecture between the Large Subunit of Eukaryotic Primase and DNA Photolyase” can be followed below.

In general, Kd refers to a measure of binding affinity in units of concentration.

Series [1] concerns the target T1, PriL-CTD (Saccharomyces cerevisiae, UniProt P20457 316-512, del381-383).
T1 sequence: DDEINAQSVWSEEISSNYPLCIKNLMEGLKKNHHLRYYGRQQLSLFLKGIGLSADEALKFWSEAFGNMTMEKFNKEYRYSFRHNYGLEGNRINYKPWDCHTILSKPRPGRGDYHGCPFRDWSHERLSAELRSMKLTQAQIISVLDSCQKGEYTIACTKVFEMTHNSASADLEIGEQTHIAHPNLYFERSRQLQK
The experiment in a line: fluorescence anisotropy; 80 nM DNA; Buffer F: 20 mM HEPES pH 6.8, 150 mM KCl, 1 mM EDTA, 25 C; SPR in buffer F + 0.005% P20, 25 C. The note with it: protein: recombinant, tags: N-terminal His6, removed by TEV. (Fluorescence polarisation rises when a labelled molecule tumbles more slowly, as on binding a larger partner.)

Series [2] concerns the target T2, DNA primase large subunit PriL, full length;DNA primase small subunit PriS (Saccharomyces cerevisiae;Saccharomyces …, UniProt P20457;P10363 1-528;1-409, |).
T2 sequence 1: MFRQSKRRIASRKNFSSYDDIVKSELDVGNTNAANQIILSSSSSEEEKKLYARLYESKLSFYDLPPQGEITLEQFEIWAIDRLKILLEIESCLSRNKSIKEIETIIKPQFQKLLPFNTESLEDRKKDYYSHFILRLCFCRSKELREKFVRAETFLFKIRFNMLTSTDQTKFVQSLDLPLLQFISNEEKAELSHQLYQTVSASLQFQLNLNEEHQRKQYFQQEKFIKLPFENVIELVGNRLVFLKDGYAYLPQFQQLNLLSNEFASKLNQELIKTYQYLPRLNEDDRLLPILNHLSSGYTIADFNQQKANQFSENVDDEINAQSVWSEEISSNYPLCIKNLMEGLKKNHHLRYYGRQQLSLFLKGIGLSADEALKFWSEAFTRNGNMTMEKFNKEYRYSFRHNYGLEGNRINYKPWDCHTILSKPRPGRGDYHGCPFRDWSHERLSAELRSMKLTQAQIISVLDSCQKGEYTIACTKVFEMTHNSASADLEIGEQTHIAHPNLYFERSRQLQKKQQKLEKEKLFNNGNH
T2 sequence 2: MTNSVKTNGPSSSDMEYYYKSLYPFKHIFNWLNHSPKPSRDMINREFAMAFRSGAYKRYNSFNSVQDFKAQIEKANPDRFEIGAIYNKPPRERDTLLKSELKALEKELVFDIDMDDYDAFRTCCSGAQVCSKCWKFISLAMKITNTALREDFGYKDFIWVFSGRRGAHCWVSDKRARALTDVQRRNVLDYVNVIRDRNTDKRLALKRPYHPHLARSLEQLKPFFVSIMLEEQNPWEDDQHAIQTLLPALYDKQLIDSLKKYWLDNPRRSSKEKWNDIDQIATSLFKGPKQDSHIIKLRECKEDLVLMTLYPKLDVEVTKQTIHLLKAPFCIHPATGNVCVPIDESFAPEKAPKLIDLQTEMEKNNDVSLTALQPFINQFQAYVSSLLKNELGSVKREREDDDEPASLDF
The experiment in a line: fluorescence anisotropy; 20 nM DNA; Buffer F: 20 mM HEPES pH 6.8, 150 mM KCl, 1 mM EDTA, 25 C; SPR in buffer F + 0.005% P20, 25 C. The following applies: protein: recombinant;recombinant; tags: ;; copies: 1;1; label: fluorescein; single strand.

The target in series [3] is T1, PriL-CTD. Description: fluorescence anisotropy; Kd similar to the 70 µM of the mixed 20mer; data not shown; Buffer F: 20 mM HEPES pH 6.8, 150 mM KCl, 1 mM EDTA, 25 C; SPR in buffer F + 0.005% P20, 25 C. The following applies: protein: recombinant; tags: N-terminal His6, removed by TEV; label: fluorescein; single strand.

B1: dsDNA 20mer (fluorescein) (dsDNA)
DNA 1: GGTGAGAGGAGAATGGAAGT
DNA 2: ACTTCCATTCTCCTCTCACC
For the molecule B1, the Kd in the series with PriL-CTD [1] (label: 5' fluorescein on S2, the printed complement S1 carries 5' biotin, blunt) amounted to 178 ± 1.3 µM.
Consider TTTTTTTTTTTTTTTTTTTTTTTTTTTTTTTTTTTTTTTT (ssDNA) [poly(dT) 40mer], for which, in series [2], the Kd stood at 1.7 µM.
Take GGTGAGAGGAGAATGGAAGT (ssDNA) [ssDNA 20mer (fluorescein)]: the Kd in the series with PriL-CTD [1] (label: 5' fluorescein, single strand) was 70 ± 0.2 µM.
As for TTTTTTTTTTTTTTTTTTTT (ssDNA) [poly(dT) 20mer], the binding result in the series with PriL-CTD [3] is listed as “binds”.
